Results: patent US20240400677A1 (ELECTRA THERAPEUTICS, published 2024)
Each block holds one binder with its values, some of them ahead of it.

How the values were obtained:
[1] = biological target: T1, human SIRPα V2-His monomer protein (human, UniProt P78324 31-370, limits assumed); assay: BLI
T1 construct: the V2 allele differs from the canonical UniProt P78324 entry
Description: (§1) Select antibodies from Example 1 of the disclosure were tested for their affinities to human SIRPγ, cynomolgus monkey SIRPγ, human SIRPαV1, human SIRPαV2, and human SIRPβ1 using a biolayer interferometry (BLI) Octet system (Pall ForteBio). Each antibody was immobilized on a biosensor tip by an anti-human IgG capture (AHC). […] The biosensors were then exposed to wash buffer to measure off-rate kinetics. The resulting kinetic data were analyzed and fitted using a 1:1 binding model.

[2] = biological target: T2, human SIRPβ1-His monomer protein (human, UniProt O00241 30-371, limits assumed); assay: BLI
T2 sequence (O00241 30-371 limits assumed): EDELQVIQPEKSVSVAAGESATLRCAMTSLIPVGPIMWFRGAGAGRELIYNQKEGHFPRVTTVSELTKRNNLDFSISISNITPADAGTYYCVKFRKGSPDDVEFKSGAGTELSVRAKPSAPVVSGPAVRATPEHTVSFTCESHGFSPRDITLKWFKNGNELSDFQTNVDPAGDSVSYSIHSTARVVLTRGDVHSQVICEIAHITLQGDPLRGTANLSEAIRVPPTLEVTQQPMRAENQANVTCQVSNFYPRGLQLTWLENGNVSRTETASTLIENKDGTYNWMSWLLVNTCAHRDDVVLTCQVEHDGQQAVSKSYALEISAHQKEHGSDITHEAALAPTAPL
Description: as §1

[3] = biological target: T3, human SIRPγ-His monomer protein (human, UniProt Q9P1W8 29-360); assay: BLI Octet, antibody on AHC, SIRP-His monomer, 1:1 model
T3 construct: also called hSIRPγ
T3 sequence (Q9P1W8 29-360 limits assumed): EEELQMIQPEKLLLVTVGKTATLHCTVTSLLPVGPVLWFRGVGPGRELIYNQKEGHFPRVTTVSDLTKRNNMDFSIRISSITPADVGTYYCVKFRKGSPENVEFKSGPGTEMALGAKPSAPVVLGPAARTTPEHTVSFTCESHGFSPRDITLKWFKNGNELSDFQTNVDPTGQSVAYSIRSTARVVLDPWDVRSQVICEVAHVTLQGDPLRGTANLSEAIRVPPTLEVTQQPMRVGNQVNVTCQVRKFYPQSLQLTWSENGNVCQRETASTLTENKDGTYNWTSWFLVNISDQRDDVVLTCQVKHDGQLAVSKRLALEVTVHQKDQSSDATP
Description: as §1

[4] = biological target: T4, cynomolgus monkey SIRPγ-His monomer protein (cynomolgus monkey, UniProt Q9P1W8 29-359 (human entry), limits assumed); assay: as above
T4 construct: also called Cyno SIRPγ; Cyno SIRPγ-His
T4 chain: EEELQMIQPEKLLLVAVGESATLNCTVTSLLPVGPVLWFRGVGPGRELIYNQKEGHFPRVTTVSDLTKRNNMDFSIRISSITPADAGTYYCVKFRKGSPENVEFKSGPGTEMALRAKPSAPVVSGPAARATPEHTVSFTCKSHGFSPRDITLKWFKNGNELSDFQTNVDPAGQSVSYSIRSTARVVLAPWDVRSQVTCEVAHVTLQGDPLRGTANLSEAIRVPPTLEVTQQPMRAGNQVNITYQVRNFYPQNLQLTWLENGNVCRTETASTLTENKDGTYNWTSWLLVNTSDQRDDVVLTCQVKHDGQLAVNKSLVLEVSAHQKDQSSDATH
Description: as §1

[5] = biological target: T5, Human SIRPαV2 (plate-coated extracellular domain) (Homo sapiens, UniProt P78324); assay: ELISA, coated SIRP ECD (2 µg/mL), anti-human IgG, luminescence
T5 construct: extracellular domain
T5 sequence (P78324 other isoform, or with tags, fused parts or gaps limits assumed): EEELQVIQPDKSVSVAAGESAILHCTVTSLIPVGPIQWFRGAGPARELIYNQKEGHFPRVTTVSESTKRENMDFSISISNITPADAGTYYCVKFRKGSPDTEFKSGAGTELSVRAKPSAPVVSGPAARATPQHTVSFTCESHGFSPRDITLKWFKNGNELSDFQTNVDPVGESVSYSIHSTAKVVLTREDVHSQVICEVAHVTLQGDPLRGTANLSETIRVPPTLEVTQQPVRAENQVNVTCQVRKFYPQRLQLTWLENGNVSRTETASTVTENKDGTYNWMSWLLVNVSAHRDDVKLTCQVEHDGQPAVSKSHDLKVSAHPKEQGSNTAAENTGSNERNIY
Procedure, shortened: (§2)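 Plate-coated SIRP extracellular domain (2 μg/mL), blocked, then exposed to purified antibodies in titration, after transient expression in Expi293F cells for 5 days and Protein A purification. Bound antibody is detected with anti-human IgG and a chemiluminescent substrate, and reported as relative luminescence units.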

[6] = biological target: T6, extracellular binding domain of human SIRPγ (plate-coated) (human, UniProt Q9P1W8 29-360); assay: as above
T6 construct: also called hSIRPγ
T6 sequence (Q9P1W8 29-360 limits assumed): as the sequence (Q9P1W8 29-360 limits assumed) above
Procedure, shortened: as §2

[7] = biological target: T7, human SIRPγ on primary human T-cells (human, UniProt Q9P1W8 29-387); assay: flow cytometry, dye-conjugated antibody, human whole blood (3 donors)
T7 construct: endogenous SIRPγ of donor T-cells; also called SIRPγ on T-cells
T7 sequence (Q9P1W8 29-387 limits assumed): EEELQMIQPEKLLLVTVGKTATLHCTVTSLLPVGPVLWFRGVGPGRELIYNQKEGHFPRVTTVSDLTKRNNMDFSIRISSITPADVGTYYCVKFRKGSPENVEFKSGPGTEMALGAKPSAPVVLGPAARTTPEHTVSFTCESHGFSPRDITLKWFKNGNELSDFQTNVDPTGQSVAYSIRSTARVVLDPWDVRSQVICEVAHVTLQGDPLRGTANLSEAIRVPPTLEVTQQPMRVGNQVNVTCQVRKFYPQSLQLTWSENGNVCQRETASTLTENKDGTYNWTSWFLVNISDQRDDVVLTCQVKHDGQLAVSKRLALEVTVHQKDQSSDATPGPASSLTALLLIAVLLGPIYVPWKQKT
Description: Selected antibodies and an isotype control were tested for binding to human T-cells, B-cells, NK cells, monocytes, and granulocytes. […] Up to 50 μg/mL fluorescent dye-conjugated antibodies or isotype controls were incubated with whole blood from three normal donors. T-cells were identified as the CD14−, CD20−, SSClow, and CD3+ population or further identified to be CD4+ or CD8+ populations. B-cells were identified as the CD14−, SSClow, and CD20+ population. NK cells were identified as CD14−, CD20−, CD3−, and CD56+. Monocytes were identified as the SSClow and CD14+ population. Granulocytes were identified as the CD14−, CD20−, CD3−, SSChigh population. Graphs depict the median fluorescence intensity (MFI) of each population.

[8] = biological target: T8, human SIRPβ1 on CHO cells (co-transfected with DAP12) (human, UniProt O00241 30-398); assay: flow cytometry
T8 construct: whole, on cells; co-transfected with DAP12; also called Human SIRPβ1 CHO
T8 sequence (O00241 30-398): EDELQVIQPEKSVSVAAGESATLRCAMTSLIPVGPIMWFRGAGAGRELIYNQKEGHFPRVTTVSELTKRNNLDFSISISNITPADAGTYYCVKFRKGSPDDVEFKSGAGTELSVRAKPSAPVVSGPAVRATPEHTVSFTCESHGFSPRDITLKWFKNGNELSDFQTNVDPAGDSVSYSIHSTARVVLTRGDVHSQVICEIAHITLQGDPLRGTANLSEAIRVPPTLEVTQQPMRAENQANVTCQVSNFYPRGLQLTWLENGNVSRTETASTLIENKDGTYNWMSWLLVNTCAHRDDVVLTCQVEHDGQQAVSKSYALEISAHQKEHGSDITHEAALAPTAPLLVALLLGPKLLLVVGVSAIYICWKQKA

[9] = biological target: T9, cynomolgus monkey SIRPγ on CHO cells (cynomolgus monkey, UniProt Q9P1W8 29-386 (human entry)); assay: flow cytometry, myc-scFv PPE
T9 construct: also called Cyno SIRPγ CHO
T9 chain: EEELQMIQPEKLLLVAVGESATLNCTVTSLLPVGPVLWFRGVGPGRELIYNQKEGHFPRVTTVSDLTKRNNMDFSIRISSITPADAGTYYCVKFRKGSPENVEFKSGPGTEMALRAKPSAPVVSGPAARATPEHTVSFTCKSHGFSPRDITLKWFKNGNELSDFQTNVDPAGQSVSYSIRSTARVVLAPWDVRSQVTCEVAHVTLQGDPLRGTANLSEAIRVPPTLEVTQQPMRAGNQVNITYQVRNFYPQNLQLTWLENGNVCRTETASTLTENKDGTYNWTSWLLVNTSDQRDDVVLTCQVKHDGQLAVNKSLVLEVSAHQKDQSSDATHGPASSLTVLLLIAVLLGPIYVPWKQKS
Procedure, shortened: (§3)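 Read-out is median fluorescence intensity for each antibody concentration, measured after a titration series is bound to stably transfected CHO cells and stained with labelled anti-human IgG. The scFv data come from myc-tagged crude PPE, also run on parental CHO-K1, where fold change below 2.0 denotes no binding.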

[10] = biological target: T10, cynomolgus monkey SIRPα on CHO cells (cynomolgus monkey, UniProt A0A2K5VYQ9 31-507); assay: flow cytometry, myc-scFv PPE
T10 construct: whole, on cells; also called Cyno SIRPα CHO
T10 sequence: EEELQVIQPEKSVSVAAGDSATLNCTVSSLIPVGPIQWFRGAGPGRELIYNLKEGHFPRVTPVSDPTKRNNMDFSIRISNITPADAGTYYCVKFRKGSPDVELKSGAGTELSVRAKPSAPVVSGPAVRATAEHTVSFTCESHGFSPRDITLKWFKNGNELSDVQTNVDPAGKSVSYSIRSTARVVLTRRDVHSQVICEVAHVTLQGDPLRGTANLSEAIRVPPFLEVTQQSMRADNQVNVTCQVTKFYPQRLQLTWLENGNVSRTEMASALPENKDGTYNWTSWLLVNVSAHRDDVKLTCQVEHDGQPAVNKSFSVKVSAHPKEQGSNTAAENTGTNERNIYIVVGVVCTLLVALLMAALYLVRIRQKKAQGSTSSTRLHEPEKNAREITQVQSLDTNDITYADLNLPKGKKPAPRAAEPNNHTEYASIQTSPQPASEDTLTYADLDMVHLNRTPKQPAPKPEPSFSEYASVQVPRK
Procedure, shortened: as §3

[11] = biological target: T11, human SIRPγ on stably transfected CHO cells (human, UniProt Q9P1W8 29-387); assay: flow cytometry, myc-scFv PPE
T11 construct: also called Human SIRPγ CHO
T11 sequence (Q9P1W8 29-387 limits assumed): as the sequence (Q9P1W8 29-387 limits assumed) above
Procedure, shortened: as §3

[12] = biological target: T3, human SIRPγ-His monomer protein; assay: BLI Octet, V5-scFv PPE captured, SIRP-His 500 nM
[13] = biological target: T10, cynomolgus monkey SIRPα on CHO cells; assay: flow cytometry
[14] = biological target: T4, cynomolgus monkey SIRPγ-His monomer …; assay: BLI Octet, captured scFv PPE, cyno SIRP
Procedure, shortened: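 Bio-layer interferometry used biotinylated anti-V5 on streptavidin sensors to capture V5-tagged scFv from crude periplasmic extract. Monomeric His-tagged SIRP protein at 500 nM was associated, then dissociated in wash buffer. Off-rate (kdis) was analyzed from the kinetic traces.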

[15] = biological target: T1, human SIRPα V2-His monomer protein; assay: BLI Octet, V5-scFv PPE captured, SIRP-His 500 nM
[16] = biological target: T2, human SIRPβ1-His monomer protein; assay: BLI Octet, V5-scFv PPE captured, SIRP-His 500 nM

T1 sequence (P78324 other isoform, or with tags, fused parts or gaps limits assumed): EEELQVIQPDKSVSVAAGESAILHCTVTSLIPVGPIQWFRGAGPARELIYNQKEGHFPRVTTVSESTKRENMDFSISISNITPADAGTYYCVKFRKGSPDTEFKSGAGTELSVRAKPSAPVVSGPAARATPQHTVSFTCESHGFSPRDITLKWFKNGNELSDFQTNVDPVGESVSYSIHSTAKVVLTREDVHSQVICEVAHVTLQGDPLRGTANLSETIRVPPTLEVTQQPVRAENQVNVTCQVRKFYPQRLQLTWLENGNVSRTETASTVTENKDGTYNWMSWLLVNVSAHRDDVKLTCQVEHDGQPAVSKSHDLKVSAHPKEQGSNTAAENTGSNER

- binding result [1]: no binding (tested: 300 nM)
- binding result [2]: no binding (tested: 300 nM)
- Kd [3]: 296 nM
- Kd [4]: 2200 nM
- binding result [5]: no binding (tested: about 40 µg/mL)
- EC50 (read off the curve) [6]: ~0.3 µg/mL
B1: Antibody 7 (antibody, V domains shown)
VH: QVQLVESGGGVVQPGRSLRLSCAASGFTFSNYGMHWVRQAPGKGLEWVAFIWYDGSNKNYADSVKGRFTISRDNPTNTLYLQMNSLRAEDTAVYYCAREEQWLDYWGQGTLVTVSS
VL: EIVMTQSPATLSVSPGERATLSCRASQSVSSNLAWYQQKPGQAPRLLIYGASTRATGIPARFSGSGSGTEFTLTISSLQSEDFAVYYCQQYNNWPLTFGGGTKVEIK

- binding result [2]: no binding (tested: 300 nM)
- Kd [3]: 2.07 nM
- Kd [4]: 8.01 nM
- EC50 (read off the curve) [6]: ~0.04 µg/mL
- EC50 (read off the curve) [7]: ~0.1 µg/mL
B2: Antibody 8 (antibody, V domains shown)
VH: QVQLVQSGAEVKKPGASVKVSCKASGYTFTGYHIHWVRQAPGQGLEWMGWINPNSGGTNYAQKFQGRVTMTRDTSINTAYMELNRLRSDDTAVFYCARERVGYCSRPSCLDDLNIWGQGTMVTVSS
VL: DIQMTQSPSTLSASVGDRVTITCRASQSISSWLAWYQQKPGKAPKLLIYKASSLETGVPSRFSGSGSGTEFTLTISSLQPDDFATYYCQQYDSYYTFGQGTKLEIK

- binding result [8]: no binding (tested: fold change <2.0)
- MFI fold change over parental CHO [9]: 36.6 fold
- MFI fold change over parental CHO [10]: 2.01 fold
- MFI fold change over parental CHO [11]: 43.3 fold
- kdis [12]: < 0.001 s⁻¹
B3: Antibody 19 (scFv, V domains shown)
VH: QVQLVQSGAEVKKPGASVKVSCKASGYTFTAYYMHWVRQAPGQGLEWMGIINPSGGSTSYAQKFQGRVTMTRDTSTSTVYMELSSLRSEDTAVYYCARDSGWYAPGYYYGMDVWGQGTTVTVSS
VL: DIQMTQSPSSLSASVGDRVTITCRASESISHWLAWYQQKPGKAPKLLIYGASTLQSGVPSRFSGSGSGTDFTLTISSLQPEDFATYYCQQSYTPPLTFGGGTKVEIK
notes: scFv in crude PPE, V5/myc-tagged

- binding result [13]: no binding (tested: fold change <2.0)
- MFI fold change over parental CHO [9]: 24 fold
- MFI fold change over parental CHO [11]: 46.5 fold
- binding result [14]: binds
- kdis [12]: 0.001 to 0.01 s⁻¹
- kdis [15]: 0.001 to 0.01 s⁻¹
- kdis [16]: < 0.001 s⁻¹
B4: Antibody 28 (scFv, V domains shown)
VH: QVQLVQSGAEVKKPGASVKVSCKASGYTFTSYNIHWVRQAPGQGLEWMGWISAYNGNTNYAQKLQGRVTMTRDTSTSTVYMELSSLRSEDTAVYYCALDGGQLGVAFDIWGQGTMVTVSS
VL: DIQMTQSPSSLSASVGDRVTITCRASQGISNWLAWYQQKPGKAPKLLIYDASNLDAGVPSRFSGSGSGTDFTLTISSLQPEDFATYYCQQANSLPLTFGGGTKVEIK
notes: as for B3
